Columns and labels:
[1] = biological target: GST-Pab1 (S. pombe poly(A)-binding protein Pab1) (S. pombe) (UniProt P31209)
Pab1 [2] = biological target: T1, Pab1 (Schizosaccharomyces pombe, UniProt P31209 80-653); test: fluorescence polarization; FP: 20 mM HEPES pH 7.4, 150 mM NaCl, 22 C, 2 h, 0.2 nM RNA; switchSENSE: same buffer + 0.001% Tween-20, 25 nM Pab1, 20 C; EMSA: 20 mM PIPES pH 6.8, 10 mM KCl, 90 mM NaCl, 2 mM Mg(OAc)2, 0.1 mM TCEP, 22 C, 200 nM RNA; settings: protein: recombinant; tags: N-terminal GST cleaved with 3C protease; label: 5' 6-FAM
T1 sequence: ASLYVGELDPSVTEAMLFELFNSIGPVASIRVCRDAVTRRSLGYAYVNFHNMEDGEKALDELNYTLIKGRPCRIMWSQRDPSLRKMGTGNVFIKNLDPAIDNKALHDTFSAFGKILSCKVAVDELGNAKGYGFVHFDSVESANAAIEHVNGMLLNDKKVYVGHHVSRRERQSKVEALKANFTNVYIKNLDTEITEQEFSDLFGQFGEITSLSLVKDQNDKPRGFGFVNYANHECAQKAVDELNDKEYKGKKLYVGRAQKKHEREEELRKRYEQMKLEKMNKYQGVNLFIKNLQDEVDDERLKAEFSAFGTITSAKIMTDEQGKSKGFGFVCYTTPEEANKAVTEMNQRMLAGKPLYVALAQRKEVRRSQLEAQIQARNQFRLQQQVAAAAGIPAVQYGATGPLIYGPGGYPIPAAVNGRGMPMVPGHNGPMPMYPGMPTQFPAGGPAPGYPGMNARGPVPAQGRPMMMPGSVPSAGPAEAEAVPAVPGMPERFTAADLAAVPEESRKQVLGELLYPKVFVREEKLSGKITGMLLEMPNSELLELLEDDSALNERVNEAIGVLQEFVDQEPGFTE

Pab1 [3] = biological target: T1, Pab1; test: fluorescence polarization; one-site quadratic fit; printed label order scrambled, assigned by koff/kon; FP: 20 mM HEPES pH 7.4, 150 mM NaCl, 22 C, 2 h, 0.2 nM RNA; switchSENSE: same buffer + 0.001% Tween-20, 25 nM Pab1, 20 C; EMSA: 20 mM PIPES pH 6.8, 10 mM KCl, 90 mM NaCl, 2 mM Mg(OAc)2, 0.1 mM TCEP, 22 C, 200 nM RNA; settings: protein: recombinant; tags: N-terminal GST cleaved with 3C protease; label: 5' 6-FAM

Question: “S. pombe Ccr4-Not complex (WT), seven core subunits (from UniProt O74874 1-690; O74856 1-335; P87112 1-2100; P87240 1-306; O13870 1-640; Q92368 1-283)” was tested. Which average rate of deadenylation of 20-mer-A60 RNA by purified Ccr4-Not with Pab1 (two molecules per RNA; GST cleaved) against without Pab1 [1] did it give?
Answer: The average rate of deadenylation of 20-mer-A60 RNA by purified Ccr4-Not with Pab1 (two molecules per RNA; GST cleaved) against without Pab1 was 3 fold.

Question: AAAAAAAAAAAAAAAAAAAAAA (ssRNA) [A22] was tested. Which Kd (Pab1 [2]) did it give?
Answer: Its Kd is roughly 0.5 nM.

Question: AAAAAAAAAAAA (ssRNA) [A12] was tested. Which Kd (Pab1 [2]) did it give?
Answer: Its Kd is roughly 27 nM.

Question: Which Kd (Pab1 [3]) does the source give for AAAAAAAAAAAAAAAAAAAAAAAAAAAAAA (ssRNA) [A30] here?
Answer: Its Kd is 0.25 ± 0.03 nM.

Source: PMC6024076, “mRNA Deadenylation Is Coupled to Translation Rates by the Differential Activities of Ccr4-Not Nucleases”
